Biological target: T1, VP16-ERα chimera (full-length ERα fused to the Herpes simplex virus VP16 transactivation domain) (Herpes simplex virus, UniProt P03372 1-595)
T1 construct: Expressed in HeLa cells for the mammalian two-hybrid assay; also called pACT-ERα
T1 sequence: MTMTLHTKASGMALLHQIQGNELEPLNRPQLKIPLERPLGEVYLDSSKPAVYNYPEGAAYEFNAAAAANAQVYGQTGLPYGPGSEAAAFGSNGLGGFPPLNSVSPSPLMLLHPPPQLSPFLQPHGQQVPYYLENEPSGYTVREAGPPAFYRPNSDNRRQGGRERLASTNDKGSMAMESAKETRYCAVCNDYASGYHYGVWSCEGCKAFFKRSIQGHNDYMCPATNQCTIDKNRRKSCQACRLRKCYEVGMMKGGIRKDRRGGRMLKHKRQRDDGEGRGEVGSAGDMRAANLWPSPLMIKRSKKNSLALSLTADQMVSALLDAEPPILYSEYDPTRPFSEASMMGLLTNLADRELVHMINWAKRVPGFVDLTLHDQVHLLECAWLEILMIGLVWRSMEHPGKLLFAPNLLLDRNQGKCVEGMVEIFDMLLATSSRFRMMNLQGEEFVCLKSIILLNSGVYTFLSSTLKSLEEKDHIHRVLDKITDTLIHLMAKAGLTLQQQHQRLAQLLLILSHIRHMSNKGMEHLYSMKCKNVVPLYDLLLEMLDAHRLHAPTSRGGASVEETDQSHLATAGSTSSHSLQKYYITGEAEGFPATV
Assay: mammalian two-hybrid (luciferase reporter) in HeLa cells, hormone-free

B1: GAL4-DBC-1-C terminal chimera (amino acids 479-923) (other, yeast;human, UniProt P04386 1-147, looked up)
chain: MKLLSSIEQACDICRLKKLKCSKEKPKCAKCLKNNWECRYSPKTKRSPLTRAHLTEVESRLERLEQLFLLIFPREDLDMILKMDSLQDIKALLTGLFVQDNVNKDAVTDRLASVETDMPLTLRQHRISATSSSEESSNKGQRQLTVSRRNAETPEATTQQETDTDLPEAPPPPLEPAVIARPGCVNLSLHGIVEDRRPKERISFEVMVLAELFLEMLQRDFGYRVYKMLLSLPEKVVSPPEPEKEEAAKEEATKEEEAIKEEVVKEPKDEAQNEGPATESEAPLKEDGLLPKPLSSGGEEEEKPRGEASEDLCEMALDPELLLLRDDGEEEFAGAKLEDSEVRSVASNQSEMEFSSLQDMPKELDPSAVLPLDCLLAFVFFDANWCGYLHRRDLERILLTLGIRLSAEQAKQLVSRVVTQNICQYRSLQYSRQEGLDGGLPEEVLFGNLDLLPPPGKSTKPGAAPTEHKALVSHNGSLINVGSLLQRAEQQDSGRLYLENKIHTLELKLEESHNRFSATEVTNKTLAAEMQELRVRLAEAEETARTAERQKSQLQRLLQELRRRLTPLQLEIQRVVEKADSWVEKEEPAPSN
notes: Expressed in HeLa cells for the mammalian two-hybrid assay
  binding result: no binding

From US20090062179A1 (University of Texas, published 2009)
